Reference: publication PMC2880635
Where a chain is given by its changes, count along the chain named. Numbers in names are those of the source.

Substrate: O=[N+]([O-])c1ccc(OP(=O)(O)O)cc1
Experiment: purified protein, by the assay type
Settings: other: substrate pNPP
[1] = Sts-2PGM(E481V), pH 5.0, 37 °C, pH 5.0
[2] = Sts-2PGM(E481V), pH 7.5, 37 °C, pH 7.5
[3] = Sts-2PGM(A446S/S552A), pH 7.5, 37 °C, pH 7.5
[4] = Sts-2PGM(Q372V/S582Y), pH 7.5, 37 °C, pH 7.5
[5] = Sts-2PGM wild-type, pH 5.0, 37 °C, pH 5.0
[6] = Sts-2PGM wild-type, pH 7.5, 37 °C, pH 7.5
[7] = Sts-2PGM(S552A/S582Y), pH 5.0, 37 °C, pH 5.0
[8] = Sts-2PGM(S552A/S582Y), pH 7.5, 37 °C, pH 7.5
[9] = Sts-1PGM, pH 5.0, 37 °C, pH 5.0
[10] = Sts-1PGM, pH 7.5, 37 °C, pH 7.5

B1: Sts-2PGM(E481V) (Mus musculus; E481V) (protein)
chain: ATISRRGILVVRHGERVDQVFGKSWLQQCTTADGKYYRPDLNFPRSLPRRSNGIKDFENDPPLSSCGIFQARLAGEALLDSGVRVTAVFASPALRCVQTAKHILEELKLEKKLKIRVEPGIFEWMKWVASKATLTFLTLEELKEANFNVDLDYRPALPRCSLMPAESYDQYVERCAVSMGQIINTCPQDMGITLIVSHSSALDSCTRPLLGLPPRECGDFAQLVRKIPSLGMCFCEENREDGKWDLVNPPVKTLTHGANSVFNWRNWISSN
Km [1]: 200 ± 20 µM | kcat [1]: 0.65 s⁻¹ | kcat/Km [1]: 3100 M⁻¹ s⁻¹ | Km [2]: 1000 ± 150 µM | kcat [2]: 0.15 s⁻¹ | kcat/Km [2]: 150 M⁻¹ s⁻¹

B2: Sts-2PGM(A446S/S552A) (Mus musculus; A446S/S552A) (protein)
chain: B1 chain with A93S, V128E, S199A
Km [3]: 640 ± 80 µM | kcat [3]: 0.27 s⁻¹ | kcat/Km [3]: 420 M⁻¹ s⁻¹

B3: Sts-2PGM(Q372V/S582Y) (Mus musculus; Q372V/S582Y) (protein)
chain: B1 chain with Q19V, V128E, S229Y
Km [4]: 700 ± 100 µM | kcat [4]: 0.4 s⁻¹ | kcat/Km [4]: 571 M⁻¹ s⁻¹

B4: Sts-2PGM (Mus musculus) (protein)
chain: B1 chain with V128E
Km [5]: 1500 ± 80 µM | kcat [5]: 0.3 s⁻¹ | kcat/Km [5]: 200 M⁻¹ s⁻¹ | Km [6]: 2000 ± 130 µM | kcat [6]: 0.03 s⁻¹ | kcat/Km [6]: 15 M⁻¹ s⁻¹

B5: Sts-2PGM(S552A/S582Y) (Mus musculus; S552A/S582Y) (protein)
chain: B1 chain with V128E, S199A, S229Y
Km [7]: 620 ± 100 µM | kcat [7]: 2.9 s⁻¹ | kcat/Km [7]: 4700 M⁻¹ s⁻¹ | Km [8]: 1900 ± 200 µM | kcat [8]: 0.43 s⁻¹ | kcat/Km [8]: 226 M⁻¹ s⁻¹

B6: Sts-1PGM (Mus musculus) (protein)
chain: GPQKRCLFVCRHGERMDVVFGKYWLSQCFDAKGRYIRTNLNMPHSLPQRSGGFRDYEKDAPITVFGCMQARLVGEALLESNTVIDHVYCSPSLRCVQTAHNILKGLQQDNHLKIRVEPGLFEWTKWVAGSTLPAWIPPSELAAANLSVDTTYRPHIPVSKLAISESYDTYINRSFQVTKEIISECKSKGNNILIVAHASSLEACTCQLQGLSPQNSKDFVQMVRKIPYLGFCSCEELGETGIWQLTDPPILPLTHGPTGGFNWRETLLQE
Km [9]: 20 ± 9 µM | kcat [9]: 63.4 s⁻¹ | kcat/Km [9]: 3.15e+06 M⁻¹ s⁻¹ | Km [10]: 500 ± 60 µM | kcat [10]: 70 s⁻¹ | kcat/Km [10]: 141000 M⁻¹ s⁻¹
